The record followed here is paper PMC9017343 (2022).

In assay [1] the target is T1, SARS-CoV S trimer (ectodomain) (SARS-CoV, UniProt P59594 14-1195). As to the kind of experiment: SPR.
Assay [2] concerns the target T1, SARS-CoV S trimer (ectodomain). Nature of the assay: SPR. The source holds these as a separate data set. On the technique in general: In SPR one partner is held on a chip, and binding of the other changes the refractive index at the surface.

B1: COVA1-16 (antibody, V domains shown)
VH: QVQLVQSGAEVKKPGASVKVSCKASGYTFTSYYMHWVRQAPGQGLEWMGIINSSGGSTSYAQKFQGRVTMTRDTSTSTVYMELSSLRSEDTAVYYCARPPRNYYDRSGYYQRAEYFQHWGQGTLVTVSS
VL: DIQLTQSPSSLSASVGDRVTITCQASQDISNYLNWYQQRPGKAPKLLIYDASNLETGVPSRFSGSGSGTDFTFTISSLQPEDIATYYCQQYDNPPLTFGGGTKLEIK
On to B1, for which the dissociation rate constant (koff) (usually the rate constant with which the complex falls apart) in assay [1] worked out at 0.0032 s⁻¹. Besides, the affinity in assay [2], expressed as Kd, was 19.5 nM.
